In general, Kd refers to the constant that tells how readily two partners part at equilibrium. Low readings indicate higher affinity, high ones lower affinity.

This assay deals with human serum amyloid P (human), P02743. The experiment in a line: SPR. The settings on record: remark: other sources report otherwise.
Sequence of human serum amyloid P (human), P02743 (P02743 20-223): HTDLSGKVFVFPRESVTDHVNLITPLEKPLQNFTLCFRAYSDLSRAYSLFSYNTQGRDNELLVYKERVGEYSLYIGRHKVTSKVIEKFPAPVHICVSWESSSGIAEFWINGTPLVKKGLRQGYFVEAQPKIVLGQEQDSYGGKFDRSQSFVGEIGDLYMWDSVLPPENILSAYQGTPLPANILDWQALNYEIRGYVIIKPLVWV

B1: hFcγRIIIB, O75015 17-200 (receptor)
chain: GMRTEDLPKAVVFLEPQWYSVLEKDSVTLKCQGAYSPEDNSTQWFHNENLISSQASSYFIDAATVNDSGEYRCQTNLSTLSDPVQLEVHIGWLLLQAPRWVFKEEDPIHLRCHSWKNTALHKVTYLQNGKDRKYFHHNSDFHIPKATLKDSGSYFCRGLVGSKNVSSETVNITITQGLAVSTIS
In turn, B1 showed a Kd of 370 pM.
